Test results from patent publication US20190381171A1, “CO-USE OF ANTI-BCMA ANTIBODY AND ANTIBODY-COUPLED T CELL RECEPTOR (ACTR) IN CANCER THERAPY AND B CELL DISORDERS” (UNUM THERAPEUTICS INC., priority 2017, published 2019).

Experiments:
Format in all cases: cell-based, human
U266B1 target cells [1] = assay: Cytotoxicity assay with luciferase-expressing target cells and ACTR T-cells
Method: (§1) T-cells expressing ACTR variant SEQ ID NO: 1 (effector; E) and target cells (target; T) were incubated at a 4:1, effector-to-target ratio (120,000 T cells; 30,000 target cells) with increasing concentrations of various chimeric anti-BCMA antibodies (FIG. 3, parts A and B), humanized anti-BCMA antibody clones (FIG. 5, parts A and B), or anti-BCMA antibodies derived from the NCI-murine BCMA CAR sequence shown in WO2010104949A2 (FIG. 6, parts A and B) in a 200-μL reaction volume with RPMI 1640 media supplemented with 10% fetal bovine serum. The chimeric and humanized antibodies analyzed included fucosylated and afucosylated (labeled as “SEA”) versions of the SG16.17 and SG16.45 anti-BCMA antibodies. Reactions were incubated in a CO2 (5%) incubator at 37 degrees C. for 24 or 48 hours. An equal volume of Bright-Glo luciferase assay reagent (Promega; Madison, Wis.) was added prior to a 10 minute room temperature incubation. Luminescence was measured using an EnVision Multi-label plate reader (PerkinElmer; Waltham, Mass.). The percentage of live cells was determined by dividing the luminescence signal of a given sample by the luminescence signal in the absence of antibody and multiplying by 100. The percent cytotoxicity was determined by subtracting the percentage of live cells from 100. The percentage of antibody specific cytotoxicity (%) was then plotted as a function of antibody concentration.
(§2) In FIG. 8, T-cells expressing ACTR variant SEQ ID NO: 1 (effector; E) and target cells (target; T) were incubated at a 4:1, effector-to-target ratio (120,000 T cells; 30,000 target cells) with increasing concentrations of humanized afucosylated (SEA) anti-BCMA antibody SG16.17 in a 200-μL reaction volume in RPMI 1640 media supplemented with 10% fetal bovine serum. Target-cell luminescence was measured and percent cytotoxicity was determined as in Example 3.
(§3) T-cells (effector; E) and target cells (target; T) were incubated at varying effector-to-target (E:T) cell ratios in the presence of 10 μg/mL anti-BCMA antibody (FIG. 13), in a 200-μL reaction volume in RPMI 1640 media supplemented with 10% fetal bovine serum. The antibodies included fucosylated and afucosylated (SEA) versions of the two anti-BCMA antibodies (SG16.17 and SG16.45). […] Target cell luminescence was measured and percent cytotoxicity was determined as in Example 3.
(§4) In FIG. 18, T-cells (effector; E) and target cells (target; T) were incubated at a 4:1, effector-to-target ratio (30,000 target cells) with increasing concentration of humanized afucosylated anti-BCMA antibody hSG16.17SEA in a 200-μL reaction volume in RPMI 1640 media supplemented with 10% fetal bovine serum. […] Target cell luminescence was measured and percent cytotoxicity was determined as described in Example 3.

NCI-H929 target cells = assay: as above
Method: as §1, §2, §3, §4

U266B1 target cells [2] = assay: Activation markers (CD25, CD69) on ACTR T-cells by flow cytometry; details: ACTR variant SEQ ID NO: 1, E:T 1:1, 1 μg/mL antibody, 24 hours
Method: T-cells (effector; E) and target cells (target; T) were incubated at a 1:1, effector-to-target ratio (30,000 T cells; 30,000 target cells) with 1 μg/mL of anti-BCMA antibodies in a 200-μL reaction volume in RPMI 1640 media supplemented with 10% fetal bovine serum. Reactions were incubated in a CO2 (5%) incubator at 37 degrees C. for 24 hours. Geometric Mean Fluorescence intensity (gMFI) of two activation markers, CD25 and CD69 were determined in the total CD3+ CD16+ ACTR T-cell gate via flow cytometry. Briefly, cells were washed twice in staining buffer before being stained with a Live/Dead eFluor-450 dye for 30 min at 4 degrees C. After incubating in the live/dead cell stain, cells were washed twice and incubated with 100 μL of an antibody cocktail consisting of AF488-conjugated anti-human CD3 antibody, APC-conjugated anti-human CD16 antibody, PerCP-Cy5.5-conjugated anti-human CD25 antibody, and BV510-conjugated anti-human CD69 antibody. Subsequently, cells were washed twice, fixed, permeabilized, and stained for intracellular molecules prior to detection via flow cytometry. Flow cytometry gating on CD3+ CD16+ ACTR T-cells was performed after doublet and dead cell exclusion.

[3] = T-cells expressing ACTR variant SEQ ID NO: 1, E:T 4:1, increasing antibody concentrations, 24 or 48 hours

B1: cSG16.45SEA: afucosylated (SEA) version of the chimeric SG16.45 anti-BCMA antibody (antibody, V domains shown)
VH: EVQLVESGGGLVQPGRSLKLSCVASGFTFNDHWMTWIRQAPGRGLEWISSITNTGGATYYLDSVKGRFTISRDNAKSTLYLQMNSLRSEDTATYYCTSPGLYFDYWGQGVMVTVSS
VL: EIVLTQSPTTTAASPGEKVTITCLATSSVSVMYWYQHKSGASPKLLIYSTSSLASGVPDRFSGSGSGTSYSLTINTMEAEDAATYYCHQWSSDPPTFGSGTKLEIKR
cytotoxicity at varying E:T ratios (U266B1 target cells [1]; T-cells expressing ACTR variant SEQ ID NO: 1, 10 μg/mL anti-BCMA antibody, 48 hours): increased potency in comparison to the fucosylated antibodies
antibody specific cytotoxicity (U266B1 target cells [1]; [3]): increased cytotoxicity when compared with the fucosylated antibodies
cytotoxicity at varying E:T ratios (NCI-H929 target cells; T-cells expressing ACTR variant SEQ ID NO: 1, 10 μg/mL anti-BCMA antibody, 24 hours): increased potency in comparison to the fucosylated antibodies
antibody specific cytotoxicity (NCI-H929 target cells; [3]): increased cytotoxicity when compared with the fucosylated antibodies
levels of activation markers CD25 and CD69 (gMFI) on ACTR T-cells (U266B1 target cells [2]): enhanced expression of CD25 and CD69 when compared to incubations with their fucosylated counterparts
